Assay results reported in patent publication US20180320179A1, “LANOSTEROL 14-ALPHA DEMETHYLASE (CYP51) NUCLEIC ACID MOLECULES THAT CONTROL PATHOGENS” (Dow AgroSciences LLC, priority 2017, published 2018).

B1: MgCyp51-T2: dsRNA tile of Zymoseptoria tritici Cyp51, 165 bp, location 48-212 (nucleic acid, listed as Zymoseptoria tritici)
chain: CCAGACCAGCCTCTGGAAACTTGTCGGACTTGGATTCCTCGCCTTCAGCACGCTCGCCATCCTCCTCAATGTCCTCTCACAACTTCTCTTCCGTGGCAAGTTGTCCGATCCGCCACTCGTATTCCACTGGGTGCCCTTCATCGGAAGCACCATCACATACGGCAT
B2: MgCyp51-T11: dsRNA tile of Zymoseptoria tritici Cyp51, 172 bp, location 775-946 (nucleic acid, listed as Zymoseptoria tritici)
chain: TCCGAGACATACATGTCGATCATTCAGAAGAGACGAGAGTCCAAAACGGGCGAACATGAGGAAGACATGATCCACAACTTGATGCAGTGCAAATACAAGGACGGCAATGCCATTCCCGACAAGGAGATTGCTCATATGATGATTGCGCTGCTCATGGCCGGCCAGCACTCTT
B3: MgCyp51-T1: dsRNA tile of Zymoseptoria tritici Cyp51, 232 bp, location 166-397 (nucleic acid, listed as Zymoseptoria tritici)
chain: GTATTCCACTGGGTGCCCTTCATCGGAAGCACCATCACATACGGCATCGACCCATACAAGTTCTTCTTCTCCTGTCGGGAAAAGTATGGAGATGTCTTTACATTCATCCTGCTGGGAAAGAAGACGACGGTGTGCTTGGGCACCAAGGGCAATGATTTTATTTTGAATGGAAAACTGAAGGACGTCAACGCGGAGGAGATATACAGCCCGCTGACCACTCCTGTCTTTGGCA
B4: MgCyp51-T12: dsRNA tile of Zymoseptoria tritici Cyp51, 138 bp, location 1377-1514 (nucleic acid, listed as Zymoseptoria tritici)
chain: TGGCTACGGCCTGGTAAGCAAGGGCGCGGCGTCGCCATACTTACCCTTTGGTGCGGGACGACACAGATGTATCGGCGAGCAATTCGCGTACGTGCAATTGCAGACCATTACAGCGACGATGGTTCGCGATTTCAAGTT
B5: MgCyp51-T13: dsRNA tile of Zymoseptoria tritici Cyp51, 119 bp, location 1517-1635 (nucleic acid, listed as Zymoseptoria tritici)
chain: ACAATGTGGATGGCAGCGACAACGTGGTGGGTACGGATTACAGCAGTTTGTTCAGCCGGCCGCTGTCGCCGGCAGTAGTAAAGTGGGAGAGGAGGGAGGAGAAGGAGGAGAAGAACTGA
modifications: long dsRNA tile, purified, chemistry not given here
B6: MgCyp51-T10: dsRNA tile of Zymoseptoria tritici Cyp51, 172 bp, location 345-516 (nucleic acid, listed as Zymoseptoria tritici)
chain: GGACGTCAACGCGGAGGAGATATACAGCCCGCTGACCACTCCTGTCTTTGGCAAGGATGTGGTTTATGATTGTCCCAATTCGAAGCTCATGGAGCAGAAGAAGTTCGTCAAGTACGGCCTCACAACCTCTGCCCTCCAGTCCTACGTGACCTTGATCGCCGCCGAGACCCGC
B7: MgCyp51-T3: dsRNA tile of Zymoseptoria tritici Cyp51, 230 bp, location 450-679 (nucleic acid, listed as Zymoseptoria tritici)
chain: CGTCAAGTACGGCCTCACAACCTCTGCCCTCCAGTCCTACGTGACCTTGATCGCCGCCGAGACCCGCCAGTTCTTCGACCGCAACAACCCTCATAAGAAGTTCGCATCGACCAGCGGCACGATCGATCTCCCACCAGCCCTCGCCGAACTTACGATCTATACTGCCAGCCGATCATTGCAAGGAAAGGAAGTCCGCGAGGGCTTCGACTCGTCTTTCGCGGACCTCTACC
B8: MgCyp51-T9: dsRNA tile of Zymoseptoria tritici Cyp51, 172 bp, location 1-172 (nucleic acid, listed as Zymoseptoria tritici)
chain: ATGGGTCTCCTCCAGGAAGTCCTCGCGCAGTTCGACGCGCAATTCGGCCAGACCAGCCTCTGGAAACTTGTCGGACTTGGATTCCTCGCCTTCAGCACGCTCGCCATCCTCCTCAATGTCCTCTCACAACTTCTCTTCCGTGGCAAGTTGTCCGATCCGCCACTCGTATTCC
modifications: double-stranded RNA
B9: MgCyp51-T4: dsRNA tile of Zymoseptoria tritici Cyp51, 178 bp, location 647-824 (nucleic acid, listed as Zymoseptoria tritici)
chain: AGGGCTTCGACTCGTCTTTCGCGGACCTCTACCACTACCTCGATATGGGATTCACACCGATCAACTTTATGCTTCCGTGGGCGCCCCTTCCCCAGAACCGACGCCGCGATTATGCGCAGAAGAAGATGTCCGAGACATACATGTCGATCATTCAGAAGAGACGAGAGTCCAAAACGGG
B10: MgCyp51-T7: dsRNA tile of Zymoseptoria tritici Cyp51, 111 bp, location 1490-1600 (nucleic acid, listed as Zymoseptoria tritici)
chain: CGACGATGGTTCGCGATTTCAAGTTTTACAATGTGGATGGCAGCGACAACGTGGTGGGTACGGATTACAGCAGTTTGTTCAGCCGGCCGCTGTCGCCGGCAGTAGTAAAGT
modifications: long dsRNA tile, purified, chemistry not given here

Tested on: Zymoseptoria tritici (SEPTTR-184)
Assay: Cyp51 dsRNA tile (fragment) foliar application bioassay (Example 6)
Assay type: in vivo
Conditions: for ED50 (ppm) SEPTTR-184 1DP / ED80 (ppm) SEPTTR-184 1DP / Disease Control (%) SEPTTR-184 1DP: 1 day protectant; for ED50 (ppm) SEPTTR-184 1DP / ED80 (ppm) SEPTTR-184 1DP / ED50 (ppm) SEPTTR-184 3DC / ED80 (ppm) SEPTTR-184 3DC: calculated from disease control; for Disease Control (%) SEPTTR-184 1DP / Disease Control (%) SEPTTR-184 3DC: average of 2 trials; for ED50 (ppm) SEPTTR-184 3DC / ED80 (ppm) SEPTTR-184 3DC / Disease Control (%) SEPTTR-184 3DC: 3 days curative
Experimental: The 200 ppm concentration for each treatment was prepared by adding the calculated volume of the corresponding dsRNA solution in TE buffer. […] A non-target dsRNA control (YFP), a TE/phosphate buffer control, disease pressure control, and clean plant control were included.
These plants were inoculated with an aqueous spore suspension of Zymoseptoria tritici either prior to or after fungicidal treatments. After inoculation the plants were kept in 100% relative humidity to allow spores to germinate and infect the leaves. The plants were then transferred to a greenhouse set at 20° C. until disease developed.

Molecule	ED50 (ppm) SEPTTR-184 1DP	ED80 (ppm) SEPTTR-184 1DP	Disease Control (%) SEPTTR-184 1DP (rate 3.125 ppm)	Disease Control (%) SEPTTR-184 1DP (rate 12.5 ppm)	Disease Control (%) SEPTTR-184 1DP (rate 50 ppm)	Disease Control (%) SEPTTR-184 1DP (rate 200 ppm)	ED50 (ppm) SEPTTR-184 3DC	ED80 (ppm) SEPTTR-184 3DC	Disease Control (%) SEPTTR-184 3DC (rate 3.125 ppm)	Disease Control (%) SEPTTR-184 3DC (rate 12.5 ppm)	Disease Control (%) SEPTTR-184 3DC (rate 50 ppm)	Disease Control (%) SEPTTR-184 3DC (rate 200 ppm)	curative activity against SEPTTR (ranking) (curative test)	level of control among the fragments (ranking) (fragments compared with each other)
B1	<3.125 ppm	>200 ppm	53%	67%	70%	75%	<3.125 ppm	125 ppm	76%	72%	76%	84%	provided the best curative activity against SEPTTR	provided the best level of control
B2	<3.125 ppm	>200 ppm	63%	61%	58%	61%	12.500 ppm	>200 ppm	47%	50%	55%	42%		
B3	<3.125 ppm	>200 ppm	65%	68%	70%	77%	<3.125 ppm	>200 ppm	71%	78%	68%	70%		
B4	<3.125 ppm	>200 ppm	59%	64%	63%	64%	24.219 ppm	>200 ppm	36%	45%	61%	71%		
B5	<3.125 ppm	>200 ppm	58%	59%	70%	74%	4.167 ppm	>200 ppm	45%	54%	64%	59%		
B6	<3.125 ppm	>200 ppm	58%	64%	73%	75%	32.692 ppm	>200 ppm	31%	43%	56%	58%		
B7	<3.125 ppm	>200 ppm	64%	72%	69%	74%	<3.125 ppm	>200 ppm	73%	73%	72%	76%		
B8	<3.125 ppm	>200 ppm	53%	53%	57%	76%	<3.125 ppm	>200 ppm	52%	46%	65%	72%		
B9	<3.125 ppm	200 ppm	53%	65%	61%	80%	<3.125 ppm	>200 ppm	59%	52%	67%	75%		
B10	3.125 ppm	>200 ppm	50%	64%	66%	70%	5.331 ppm	>200 ppm	46%	63%	66%	72%		
